# Data taken from PMC6888645.
# Legend:
# [1] = target: DD-N-CAP2, human CAP2 helical folded domain with the coiled coil (a.a. 1-29) replaced by the dimerization domain 2L4HC2_23 (human); test: AUC; sedimentation velocity (SV-AUC), 50 µM protein, 20 °C, 50,000 rpm, absorbance at 280 nm, 20 mM Tris-HCl pH 8.0, SEDFIT c(S) model; buffer (Tris-HCl vs PBS) and salt did not affect the oligomerization state
# [2] = target: DD-N-CAP2, human CAP2 helical folded domain with the coiled coil (a.a. 1-29) replaced by the dimerization domain 2L4HC2_23 (human); test: native MS; 100-300 pmole protein (as monomer), online buffer exchange to 200 mM ammonium acetate pH 6.8, Orbitrap EMR, deconvolution with UniDec
# [3] = target: DD-N-CAP1, human CAP1 helical folded domain with the coiled coil (a.a. 1-29) replaced by the dimerization domain 2L4HC2_23 (human); test: AUC; sedimentation velocity (SV-AUC), 50 µM protein, 20 °C, 50,000 rpm, absorbance at 280 nm, 20 mM Tris-HCl pH 8.0, SEDFIT c(S) model; buffer (Tris-HCl vs PBS) and salt did not affect the oligomerization state
# [4] = target: DD-N-CAP1, human CAP1 helical folded domain with the coiled coil (a.a. 1-29) replaced by the dimerization domain 2L4HC2_23 (human); test: native MS; 100-300 pmole protein (as monomer), online buffer exchange to 200 mM ammonium acetate pH 6.8, Orbitrap EMR, deconvolution with UniDec
# [5] = target: TD-N-CAP2, human CAP2 helical folded domain with the coiled coil (a.a. 1-29) replaced by the trimerization domain 2L6HC3_6 (human); test: AUC; sedimentation velocity (SV-AUC), 50 µM protein, 20 °C, 50,000 rpm, absorbance at 280 nm, 20 mM Tris-HCl pH 8.0, SEDFIT c(S) model; buffer (Tris-HCl vs PBS) and salt did not affect the oligomerization state
# [6] = target: TD-N-CAP2, human CAP2 helical folded domain with the coiled coil (a.a. 1-29) replaced by the trimerization domain 2L6HC3_6 (human); test: native MS; 100-300 pmole protein (as monomer), online buffer exchange to 200 mM ammonium acetate pH 6.8, Orbitrap EMR, deconvolution with UniDec
# [7] = target: TD-N-CAP1, human CAP1 helical folded domain with the coiled coil (a.a. 1-29) replaced by the trimerization domain 2L6HC3_6 (human); test: AUC; sedimentation velocity (SV-AUC), 50 µM protein, 20 °C, 50,000 rpm, absorbance at 280 nm, 20 mM Tris-HCl pH 8.0, SEDFIT c(S) model; buffer (Tris-HCl vs PBS) and salt did not affect the oligomerization state
# [8] = target: TD-N-CAP1, human CAP1 helical folded domain with the coiled coil (a.a. 1-29) replaced by the trimerization domain 2L6HC3_6 (human); test: native MS; 100-300 pmole protein (as monomer), online buffer exchange to 200 mM ammonium acetate pH 6.8, Orbitrap EMR, deconvolution with UniDec
substance,measurement,setting,value
"DD-N-CAP2, human CAP2 helical folded domain with the coiled coil (a.a. 1-29) replaced by the dimerization domain 2L4HC2_23",stoichiometry N,[1],2
same,stoichiometry N,[2],2
"DD-N-CAP1, human CAP1 helical folded domain with the coiled coil (a.a. 1-29) replaced by the dimerization domain 2L4HC2_23",stoichiometry N,[3],2
same,stoichiometry N,[4],2
"TD-N-CAP2, human CAP2 helical folded domain with the coiled coil (a.a. 1-29) replaced by the trimerization domain 2L6HC3_6",stoichiometry N,[5],3
same,stoichiometry N,[6],3
"TD-N-CAP1, human CAP1 helical folded domain with the coiled coil (a.a. 1-29) replaced by the trimerization domain 2L6HC3_6",stoichiometry N,[7],3
same,stoichiometry N,[8],3
